Experimental findings from patent US20240254227A1 (Alector, published 2024) are described below.

The target of one assay is T1, murine CD300D-Fc (mouse).
T1 construct: mouse IgG2a-Fc fusion (R&D Systems); the entry is the whole fusion chain; also called mCD300D; Mouse CD300D-Fc
T1 chain: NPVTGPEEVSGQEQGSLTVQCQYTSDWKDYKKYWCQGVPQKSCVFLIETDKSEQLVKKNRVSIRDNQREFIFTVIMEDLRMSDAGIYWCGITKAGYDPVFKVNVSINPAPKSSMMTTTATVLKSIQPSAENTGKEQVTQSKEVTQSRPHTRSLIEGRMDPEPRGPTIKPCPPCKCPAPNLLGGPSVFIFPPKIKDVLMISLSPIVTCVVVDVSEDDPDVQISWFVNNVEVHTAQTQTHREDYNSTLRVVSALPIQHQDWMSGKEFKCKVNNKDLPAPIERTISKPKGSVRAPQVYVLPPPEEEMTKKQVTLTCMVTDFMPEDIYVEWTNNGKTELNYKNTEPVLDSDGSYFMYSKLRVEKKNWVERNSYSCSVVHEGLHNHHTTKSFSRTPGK
Nature of the assay: SPR (Carterra LSA), antibody immobilised, Fc fusion at 300 or 600 nM. As to the method: Binding of mouse anti-CD300LB IgG1 antibodies of the present disclosure to human and murine CD300 orthologs were evaluated by surface plasmon resonance (SPR) using a Carterra LSA instrument (Carterra, Salt Lake City, UT). […] A HC200M sensor chip (Carterra) was activated using the single channel flow cell with a 7-minute injection of a 1:1:1 mixture of 100 mM MES pH 5.5, 100 mM sulfo-NHS, 400 mM EDC (all reconstituted in MES pH 5.5; 100 μL of each mixed in vial immediately before running assay). After switching to the multi-channel array flow cell, the antibodies were injected over the activated chip in a 96-spot array for 10 minutes. The remaining unconjugated active groups on the chip were then blocked by injecting 1M Ethanolamine pH 8.5 (Carterra) for 7 minutes using the single channel flow cell. After priming with running buffer (HBS-TE, Carterra) with 0.5 mg/ml BSA (Sigma), the immobilized anti-CD300LB antibodies were tested for their ability to bind human and mouse recombinant CD300LB extracellular domains. Human CD300 family members and mouse CD300A were hIgG1-Fc fusions, while mouse CD300LB, mouse CD300C, mouse CD300D, and mouse CD300E were mouse IgG2a-Fc fusions (R&D Systems). Binding was assessed by injecting each analyte over the entire antibody array using the single channel flow cell. CD300 analytes were diluted to 300 nM or 600 nM in running buffer and injected in series without regeneration. Two or three buffer blanks were run between each mouse or human ortholog, respectively. Data were processed and analyzed using NextGenKIT high-throughput kinetics analysis software (Carterra).
Results of anti-CD300LB antibody binding to murine CD300 family members is provided below in Table 8.

Assay [1] concerns the target T2, human CD300LB on primary human monocytes (human, UniProt A8K4G0 18-201).
T2 construct: Endogenous protein on primary cells; that the target is CD300LB is inferred from the antibodies being anti-CD300LB antibodies; also called Monocyte donor 1281; Monocyte donor 1282
T2 sequence: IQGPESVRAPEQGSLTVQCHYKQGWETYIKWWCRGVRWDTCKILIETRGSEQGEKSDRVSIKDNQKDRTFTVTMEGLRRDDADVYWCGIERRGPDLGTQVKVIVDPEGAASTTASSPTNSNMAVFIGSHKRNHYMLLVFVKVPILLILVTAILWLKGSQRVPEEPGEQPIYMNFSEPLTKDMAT
Nature of the assay: flow cytometry, primary human monocytes donor 1281, 10 ug/mL antibody, isotype control subtracted. Here is the method: (§1) Human monocytes from various donors were isolated from whole blood using RosetteSep Human Monocyte Enrichment Cocktail (Stemcell technologies) and Ficoll centrifugation per manufacturer protocols. After lysing red blood cells with ACK lysing buffer, monocytes were resuspended in complete media (RPMI, 10% FBS, Pen/Strep, L-glutamine, HEPES, non-essential amino acid, Sodium pyruvate). To obtain macrophages from these isolated monocytes, 100 ng/ml human M-CSF and 8% v/v human serum were added to the cells for 5-7 days. Cells were counted on the day of the experiment and plated at 100,000 cells per well in a round-bottom 96 well plate. Cells were incubated with TruStain Fc block and 10 μg/mL antibody for 1 hour on ice before washing with 250 μL ice cold PBS twice. Cells were then incubated with the appropriate APC-conjugated secondary antibodies for 20 minutes in the dark on ice. Finally, cells were washed twice with ice cold FACS buffer and then resuspended in 100 μL FACS buffer containing 1% propidium iodide. Samples were immediately analyzed using a BD FACSCanto flow cytometer. The gMFI was calculated using FlowJo software minus the gMFI of the appropriate isotype control.
Background: A flow cytometer gives signals particle by particle.

Assay [2] has as its target T2, human CD300LB on primary human monocytes. Nature of the assay: flow cytometry, primary human monocytes donor 1282, 10 ug/mL antibody, isotype control subtracted. Here is the method: as §1
Assay [3] shares this target. Nature of the assay: flow cytometry, primary human monocytes donor 1283, 10 ug/mL antibody, isotype control subtracted. Here is the method:
as §1

Assay [4] addresses T3, human CD300LB on primary human macrophages (human, UniProt A8K4G0 18-201).
T3 sequence: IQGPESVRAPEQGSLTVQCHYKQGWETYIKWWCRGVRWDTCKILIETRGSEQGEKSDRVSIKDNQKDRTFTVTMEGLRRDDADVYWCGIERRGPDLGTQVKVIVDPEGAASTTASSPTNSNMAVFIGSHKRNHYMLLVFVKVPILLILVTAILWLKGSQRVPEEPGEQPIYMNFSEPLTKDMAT
Nature of the assay: flow cytometry, primary human macrophages donor 1275, 10 ug/mL antibody, isotype control subtracted. As to the method:
as §1

Assay [5] deals with T3, human CD300LB on primary human …. Nature of the assay: flow cytometry, primary human macrophages donor 1277, 10 ug/mL antibody, isotype control subtracted. As to the method: as §1
For assay [6] the target is unchanged. Nature of the assay: flow cytometry, primary human macrophages donor 1278, 10 ug/mL antibody, isotype control subtracted. As to the method: as §1

B1: anti-CD300LB antibody CD-12 (antibody, V domains shown)
VH: QIQLVQSGPELKKPGETVKISCKASGYTFTDYSMHWVRQAPGKGLKWMAWINTETGEATHADDFKGRFDFSLDTSASTAYLQIKNLKNEDTGIYFCVCYGSSYGMDYWGQGTSVTVSS
VL: DIVLTQSPASLPVSLGQRATISCRASKSVRTSGASYMHWYQQKPGQPPKLLIYLASNLKSGVPTRFSGSGSGTDFTLNIHPVEEEDAATYYCQHNREVPPTFGGGTKLEIK
With B1, in the assay with murine CD300D-Fc, the “SPR binding (control subtracted)” value is 0.6.

B2: anti-CD300LB antibody CD-15 (antibody, V domains shown)
VH: QIQLVQSGPELKKPGETVKISCQVSGYTFTDYSMHWLKQAPGKGLKWMAWINTETGESTYTDEFKGRFVFSLETSVRTAYLKINNLKNEDTATYFCGTYGSSYGMAYWGQGTSVTVSS
VL: DIVLTQSPASLPVSLGQRATISCRASKSVSTSGSSYLHWYQQKPGQPPKLLIYLASKLESGVPARFRGSGSGTDFTLNIHPVEEEDAATYYCQHNREVPPTFGGGTKLEIK
As for B2, the “SPR binding (control subtracted)” value in the assay with murine CD300D-Fc is 1.7.

B3: anti-CD300LB antibody CD-17 (antibody, V domains shown)
VH: QIQLVQSGPELKKPGETVKISCKASGYTLTDYSMHWVKQAPGKGLKWMGWINTETGEPRYGDDFKGRFAFSLETSASSAYLQINNLKNDDTATYFCATYGRSYGMDFWGQGTSVTVSS
VL: DIVLTQSPASLAVSLGQRATISCRASKSVSPSGHSYMHWYQQKPGQPPKLLIYLASNLKSGVPARFSGSGSGTDFTLNIHPVEEGDAATYYCQHNRELPPTFGGGSKLEIK
B3: in the assay with murine CD300D-Fc, the “SPR binding (control subtracted)” value stood at 0.8.

B4: anti-CD300LB antibody CD-11 (antibody, V domains shown)
VH: QIQLVQSGPEVKKPGETVKISCKASGYTLTDYSMHWVMQTPGTGLKWMAWMNTETGEPTYADDFKGRFAFSLETSAGTAYLQIDNLKNEDTATYFCATYGKSYGMKYWGQGTSVTVSS
VL: DIVLTQSPPSLAVSLGQRATISCRATKSVSPYLHWYQQTPGQPPKLLIYLASNLDSGVPARFSGSGSGTDFTLNIHPVEEEDAATYYCQHNKELPPTFGGGTRLEIK
As for B4, the “SPR binding (control subtracted)” value with murine CD300D-Fc is -0.1.

B5: anti-CD300LB antibody CD-18 (antibody, V domains shown)
VH: DVQLQESGPDLVKPSQSLSLTCTVTGYSITSGYSWHWIRQFPDNKLEWMGYILSRGDTNFNPSLKSRISITRSTSNNQFFLHFNSVTTEDTATYYCARDFFDYWGQGTTLTVSS
VL: DVLMTQTPLSLPVSLGDQASISCRSSQSIVHSNGNTYLEWYLQKPGQSPKLLIYKVSDRFSGVPDRFSGSGSGTDFTLKISRVEAEDLGVYFCFQGSHVPYTFGGGTKLEIK
With B5, the “SPR binding (control subtracted)” value in the assay with murine CD300D-Fc worked out at 0.6.

B6: anti-CD300LB antibody CD-07 (antibody, V domains shown)
VH: QVQLVQSGAEVKKPGASVKVSCKASGYTFTNYRMHWVRQAPGQGLEWMGWINPNSGGTIYAQKFQGRVTMTRDTSTSTVYMELSSLRSEDTAVYYCARDLDYWGQGTLVTVSS
VL: DIQMTQSPSSLSASVGDRVTITCQASQDISNYLNWYQQKPGKAPKLLIYGASSLQSGVPSRFSGSGSGTDFTLTISSLQPEDFATYYCQQSYSTPWTFGPGTKVEIK
With B6, the gMFI in assay [1] stood at 43 gMFI; in assay [2], 468 gMFI; in assay [3], 47 gMFI; in assay [4], 2700 gMFI; in assay [5] it was 3790 gMFI; in assay [6], 211000 gMFI.

B7: anti-CD300LB antibody CD-05 (antibody, V domains shown)
VH: QVQLVQSGAEVKKPGASVKVSCKASGYTFSRYYINWVRQAPGQGLEWMGWINPNSGGTNYAQKFQGRVTMTRDTSTSTVYMELSSLRSEDTAVYYCTTDQLRFGKTGPYYGMDVWGQGTTVTVSS
VL: DIQMTQSPSSLSASVGDRVTITCRASQNIGTYLNWYQQKPGKAPKLLIYAASSLQSGVPSRFSGSGSGTDFTLTISSLQPEDFATYYCQQSYSDTLTFGGGTKVEIK
For B7, the gMFI in assay [1] was 736 gMFI; in assay [2] it was 1560 gMFI; in assay [3], 935 gMFI; in assay [4] it was 61000 gMFI; in assay [5] it was 68600 gMFI; in assay [6] it was 175000 gMFI.

B8: anti-CD300LB antibody CD-06 (antibody, V domains shown)
VH: QVQLVQSGAEVKKPGASVKVSCKASGYTFTTYAVHWVRQAPGQGLEWMGIVNPNSGGTNYAQKFQGRVTMTRDTSTSTVYMELSSLRSEDTAVYYCARDIVPMNNFYNYYYGMDVWGQGTTVTVSS
VL: DIQMTQSPSSLSASVGDRVTITCRASQSISSYLNWYQQKPGKAPKLLIYATSTLQSGVPSRFSGSGSGTDFTLTISSLQPEDFATYYCQQSYRIPYTFGQGTKVEIK
As to B8, the gMFI in assay [1] was 1650 gMFI; in assay [2], 3440 gMFI; in assay [3], 2470 gMFI; in assay [4], 26900 gMFI; in assay [5] it was 24000 gMFI; in assay [6] it was 169000 gMFI.
